First the molecules themselves.
T1: ChlH (purified recombinant, Synechocystis) (Synechocystis sp. PCC 6803, UniProt P73020 1-1331, labelled with NHS-NT647 dye in the MST experiments; activated with EDC/NHS in the cross-linking experiment)
T1 construct: Magnesium chelatase subunit ChlH (~150 kDa), Synechocystis sp; PCC 6803; also called labelled ChlH
T1 sequence (looked up): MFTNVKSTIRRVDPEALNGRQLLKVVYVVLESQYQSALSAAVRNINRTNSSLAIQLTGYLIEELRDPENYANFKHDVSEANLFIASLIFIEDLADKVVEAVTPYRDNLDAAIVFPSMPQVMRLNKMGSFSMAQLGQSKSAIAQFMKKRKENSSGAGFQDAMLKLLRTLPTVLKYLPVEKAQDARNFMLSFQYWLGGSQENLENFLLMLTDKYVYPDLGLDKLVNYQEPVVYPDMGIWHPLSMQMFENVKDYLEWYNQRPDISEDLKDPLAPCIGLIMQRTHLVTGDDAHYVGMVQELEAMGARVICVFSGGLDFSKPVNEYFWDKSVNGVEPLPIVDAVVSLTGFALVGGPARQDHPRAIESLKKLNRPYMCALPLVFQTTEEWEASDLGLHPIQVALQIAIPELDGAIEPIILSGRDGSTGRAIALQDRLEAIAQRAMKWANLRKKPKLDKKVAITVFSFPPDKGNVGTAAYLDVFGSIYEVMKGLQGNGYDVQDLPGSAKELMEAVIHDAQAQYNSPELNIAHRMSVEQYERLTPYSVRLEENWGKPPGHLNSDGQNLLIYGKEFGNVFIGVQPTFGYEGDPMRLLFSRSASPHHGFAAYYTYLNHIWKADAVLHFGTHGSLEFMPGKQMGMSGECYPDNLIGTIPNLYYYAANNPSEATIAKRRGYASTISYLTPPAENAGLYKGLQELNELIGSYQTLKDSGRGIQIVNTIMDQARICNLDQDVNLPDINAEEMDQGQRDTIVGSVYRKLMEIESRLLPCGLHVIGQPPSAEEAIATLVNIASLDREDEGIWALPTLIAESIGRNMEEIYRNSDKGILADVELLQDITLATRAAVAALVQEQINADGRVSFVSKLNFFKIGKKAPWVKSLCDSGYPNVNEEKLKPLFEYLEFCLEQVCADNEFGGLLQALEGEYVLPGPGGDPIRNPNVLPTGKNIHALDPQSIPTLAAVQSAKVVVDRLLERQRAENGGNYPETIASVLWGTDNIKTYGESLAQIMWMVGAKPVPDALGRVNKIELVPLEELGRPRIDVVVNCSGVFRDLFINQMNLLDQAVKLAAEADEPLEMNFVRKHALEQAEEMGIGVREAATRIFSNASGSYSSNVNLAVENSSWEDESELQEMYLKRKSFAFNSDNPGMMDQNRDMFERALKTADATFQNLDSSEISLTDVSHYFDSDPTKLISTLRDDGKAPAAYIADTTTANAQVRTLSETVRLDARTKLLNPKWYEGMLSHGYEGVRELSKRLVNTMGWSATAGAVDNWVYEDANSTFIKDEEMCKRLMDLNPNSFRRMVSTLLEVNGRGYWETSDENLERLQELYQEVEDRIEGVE

B1: ChlD truncation B (AAA+ domain with the polyproline region) (domain or fragment)
chain: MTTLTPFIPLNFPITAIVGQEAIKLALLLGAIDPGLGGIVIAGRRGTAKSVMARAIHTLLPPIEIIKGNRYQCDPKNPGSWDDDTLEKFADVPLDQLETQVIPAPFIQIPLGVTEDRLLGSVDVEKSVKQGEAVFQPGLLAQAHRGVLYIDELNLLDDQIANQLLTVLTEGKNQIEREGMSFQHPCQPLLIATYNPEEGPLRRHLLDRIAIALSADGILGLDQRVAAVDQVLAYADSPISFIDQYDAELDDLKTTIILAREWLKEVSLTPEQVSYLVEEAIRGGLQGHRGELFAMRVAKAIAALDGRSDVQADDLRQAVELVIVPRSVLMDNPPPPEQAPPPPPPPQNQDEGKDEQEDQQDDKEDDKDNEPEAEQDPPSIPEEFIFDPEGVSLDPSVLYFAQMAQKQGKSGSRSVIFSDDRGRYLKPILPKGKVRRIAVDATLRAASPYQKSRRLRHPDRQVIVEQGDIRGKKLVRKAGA
B2: ChlD wild type (purified recombinant, Synechocystis) (natural protein)
chain: not shown
modifications: labelled with NHS-NT647 dye where it was the labelled partner in MST (ChlD-ChlD titration)
notes: Magnesium chelatase subunit ChlD (~75 kDa), Synechocystis sp; PCC 6803; also called WT ChlD
B3: ChlD S491A (natural protein)
chain: not shown
notes: Magnesium chelatase subunit ChlD, Synechocystis sp; PCC 6803, MIDAS motif point mutant; also called MIDAS mutant; source: E. coli, purified as wild type
B4: ChlD S554R (natural protein)
chain: not shown
notes: Magnesium chelatase subunit ChlD, Synechocystis sp; PCC 6803, MIDAS motif point mutant; also called type II MIDAS mutant; source: E. coli, purified as wild type
B5: ChlD D487E (natural protein)
chain: not shown
notes: as for B3
B6: ChlD S489A (natural protein)
chain: not shown
notes: as for B3
B7: ChlD QuinE (E510Q/E513Q/E600T/E603P/E605T) (natural protein)
chain: not shown
notes: Magnesium chelatase subunit ChlD, Synechocystis sp; also called quintuplet mutant of ChlD; source: E. coli, purified (as described previously)
B8: ChlD truncation A (AAA+ domain alone) (domain or fragment)
chain: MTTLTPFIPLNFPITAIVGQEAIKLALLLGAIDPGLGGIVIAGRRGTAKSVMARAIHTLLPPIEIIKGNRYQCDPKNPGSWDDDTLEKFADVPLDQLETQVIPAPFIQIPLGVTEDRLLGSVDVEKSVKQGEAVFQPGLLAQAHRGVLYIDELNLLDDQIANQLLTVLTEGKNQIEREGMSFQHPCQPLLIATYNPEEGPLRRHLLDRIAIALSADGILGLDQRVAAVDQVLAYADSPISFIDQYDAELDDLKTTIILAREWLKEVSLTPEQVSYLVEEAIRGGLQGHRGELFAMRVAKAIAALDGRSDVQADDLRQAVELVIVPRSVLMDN

This is an account of results in PMC6604950, “The ChlD subunit links the motor and porphyrin binding subunits of magnesium chelatase” (Biochemical Journal, 2019).

What is called Kd is the equilibrium constant for the complex coming apart. In general, stoichiometry N refers to the number of molecules, sites or subunits per partner or assembly.

The first series has as its target T1, ChlH (purified recombinant, …). Kind of series: MST; ChlD (or variant) titrated into 20 nM NT647-labelled ChlH; 50 mM Tris/NaOH, 0.2% Pluronic F-127, pH 7.8, with 10 mM Mg2+; single-site model; Kd is an empirical description over all oligomeric states of ChlD. Conditions: both partners purified.
Consider B1, for which the Kd is 10500 nM.

In the case of B2, the Kd was found to be 331 nM.

Consider B3, for which the Kd amounted to 147 nM.

With B4, the Kd is 481 nM.

In the case of B5, the Kd stood at 842 nM.

For the molecule B6, the Kd was determined as 1980 nM.

For B7, the Kd was found to be 339 nM.

As to B8, the dissociation constant Kd was 14600 nM.

A further series concerns the molecule itself. In words: MST; control ChlD-ChlD titration (Supplementary Figure S3); monomer to dimer.
Details: not given
Turning to B2, the Kd turned out to be 296 nM and the “stoichiometry N” value is 2.

A further series deals with T1, ChlH (purified recombinant, …). Kind of series: MST; ChlD (or variant) titrated into 20 nM NT647-labelled ChlH; 50 mM Tris/NaOH, 0.2% Pluronic F-127, pH 7.8, without Mg2+; single-site model; Kd is an empirical description over all oligomeric states of ChlD. Conditions: both partners purified.
On to B1, for which the Kd is 6760 nM.

For the molecule B2, the dissociation constant Kd was 2100 nM.

Take B3: the Kd amounted to 351 nM.

Take B4: the dissociation constant Kd is 988 nM.

For the molecule B5, the Kd worked out at 1490 nM.

Turning to B6, the Kd came out at 3210 nM.

For B7, the Kd amounted to 512 nM.

For the molecule B8, the Kd was 5930 nM.

Another series has the same target. In words: cell-based or functional assay.
Details: not given
Consider B4, for which the “magnesium chelatase activity, rate relative to the wild-type protein” value is ~5%.
